Laboratory results as given in patent US6416738B1, “Pretargeting methods and compounds” (NeoRx Corporation, priority 1973, dated 2002).

Biological target: T1, NR-LU-10 antigen (Homo sapiens, UniProt P16422)
T1 construct: Positive NR-LU-10 tissue reactivity indicates NR-LU-10 antigen expression by such tissues; from tissue; host or cells: carcinoma and normal tissue specimens
T1 sequence (P16422 24-314): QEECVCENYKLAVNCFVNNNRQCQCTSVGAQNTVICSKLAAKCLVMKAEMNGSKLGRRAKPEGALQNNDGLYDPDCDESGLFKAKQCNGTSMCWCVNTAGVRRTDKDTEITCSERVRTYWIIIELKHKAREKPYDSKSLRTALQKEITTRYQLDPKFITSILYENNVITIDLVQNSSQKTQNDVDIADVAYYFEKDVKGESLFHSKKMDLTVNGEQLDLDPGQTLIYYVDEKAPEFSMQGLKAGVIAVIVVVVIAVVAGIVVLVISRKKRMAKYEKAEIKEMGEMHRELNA
Assay: NR-LU-10 reactivity with normal tissues (Table B)
Format: binding
From the text: Radioimmunoassays, immunoprecipitation and Fluorescence-Activated Cell Sorter (FACS) analysis were used to obtain reactivity profiles of NR-LU-10. The NR-LU-10 target antigen was present on either fixed cultured cells or in detergent extracts of various types of cancer cells. For example, the NR-LU-10 antigen is found in small cell lung, non-small cell lung, colon, breast, renal, ovarian, pancreatic, and other carcinoma tissues. Tumor reactivity of the NR-LU-10 antibody is set forth in Table A, while NR-LU-10 reactivity with normal tissues is set forth in Table B. The values in Table B are obtained as described below. Positive NR-LU-10 tissue reactivity indicates NR-LU-10 antigen expression by such tissues.
The tissue specimens were scored in accordance with three reactivity parameters: (1) the intensity of the reaction; (2) the uniformity of the reaction within the cell type; and (3) the percentage of cells reactive with the antibody. These three values are combined into a single weighted comparative value between 0 and 500, with 500 being the most intense reactivity. This comparative value facilitates comparison of different tissues. Table B includes a summary reactivity value, the number of tissue samples examined and the number of samples that reacted positively with NR-LU-10.

[1] = Adenoid: Lymphoid Follicle-Central
[2] = Adenoid: Lymphoid Follicle-Peripheral
[3] = Adrenal: Zona Fasciculata Cortex
[4] = Adrenal: Zona Glomerulosa Cortex
[5] = Adrenal: Zona Reticularis Cortex
[6] = Brain-Cerebellum: Axons, Myelinated
[7] = Brain-Cerebellum: Purkenje's Cells
[8] = Brain-Cerebrum: Axons, Myelinated
[9] = Brain-Midbrain: Axons, Myelinated
[10] = Gall Bladder: Mucosal Epithelium
[11] = Kidney: Distal Convoluted Tubules
[12] = Kidney: Proximal Convoluted Tubules
[13] = Liver: Central Lobular Hepatocyte
[14] = Lymph Node: Lymphoid Follicle-Central
[15] = Lymph Node: Lymphoid Follicle-Peripheral
[16] = Mammary Gland: Alveolar Epithelium

B1: NR-LU-10: 150 kilodalton IgG2b monoclonal antibody recognizing an approximately 40 kilodalton glycoprotein antigen expressed on most carcinomas (antibody, V domains shown)
VH: EVQLQQSGAELVKPGASVRLSCTASGFNIKDTYMHWVIERPEQGLEWIGRIDPANGNTKCDPKFQGKATITADTSSNTAYLQLSSLTSEDTAVYYCSREVLTGTWSLDYWGQGTSVTVSS
VL: DIQMIQSPSSMFASLGDRVSLSCRASQGIRGNLDWYQQKPGGTIKLLIYSTSNLNSGVPSRFSGSGSGSDYSLTISSLDSEDFADYYCLQRNAYPYTFGGGTKLEIK
B1 was tested, and the “# Pos/Exam” value (Adenoid) was 3/3, the “Summary Reactivity” value (Adenoid) was 433 and the “# Pos/Exam” value (Adenoid: Epithelium) was 0/3. The “Summary Reactivity” value (Adenoid: Epithelium) was 0, the “# Pos/Exam” value [1] was 0/3 and the “Summary Reactivity” value [1] was 0. For the same molecule, the “# Pos/Exam” value [2] was 2/2, the “Summary Reactivity” value [2] was 400 and the “# Pos/Exam” value (Adipose Tissue: Fat Cells) was 0/3. For the same molecule, the “Summary Reactivity” value (Adipose Tissue: Fat Cells) was 0, the “# Pos/Exam” value (Adrenal: Medulla) was 0/3 and the “Summary Reactivity” value (Adrenal: Medulla) was 0. The “# Pos/Exam” value [3] was 0/3, the “Summary Reactivity” value [3] was 0 and the “# Pos/Exam” value [4] was 0/3. The “Summary Reactivity” value [4] was 0, the “# Pos/Exam” value [5] was 0/3 and the “Summary Reactivity” value [5] was 0. The “# Pos/Exam” value (Aorta: Elastic Interna) was 0/3, the “Summary Reactivity” value (Aorta: Elastic Interna) was 0 and the “# Pos/Exam” value (Aorta: Endothelium) was 0/3. For the same molecule, the “Summary Reactivity” value (Aorta: Endothelium) was 0, the “# Pos/Exam” value (Aorta: Tunica Adventitia) was 0/3 and the “Summary Reactivity” value (Aorta: Tunica Adventitia) was 0. For the same molecule, the “# Pos/Exam” value (Aorta: Tunica Media) was 0/3, the “Summary Reactivity” value (Aorta: Tunica Media) was 0 and the “# Pos/Exam” value [6] was 0/3. For the same molecule, the “Summary Reactivity” value [6] was 0, the “# Pos/Exam” value (Brain-Cerebellum: Microglia) was 0/3 and the “Summary Reactivity” value (Brain-Cerebellum: Microglia) was 0. For the same molecule, the “# Pos/Exam” value (Brain-Cerebellum: Neurons) was 0/3, the “Summary Reactivity” value (Brain-Cerebellum: Neurons) was 0 and the “# Pos/Exam” value [7] was 0/3. The “Summary Reactivity” value [7] was 0, the “# Pos/Exam” value [8] was 0/3 and the “Summary Reactivity” value [8] was 0. For the same molecule, the “# Pos/Exam” value (Brain-Cerebrum: Microglia) was 0/3, the “Summary Reactivity” value (Brain-Cerebrum: Microglia) was 0 and the “# Pos/Exam” value (Brain-Cerebrum: Neurons) was 0/3. For the same molecule, the “Summary Reactivity” value (Brain-Cerebrum: Neurons) was 0, the “# Pos/Exam” value [9] was 0/3 and the “Summary Reactivity” value [9] was 0. For the same molecule, the “# Pos/Exam” value (Brain-Midbrain: Microglia) was 0/3, the “Summary Reactivity” value (Brain-Midbrain: Microglia) was 0 and the “# Pos/Exam” value (Brain-Midbrain: Neurons) was 0/3. For the same molecule, the “Summary Reactivity” value (Brain-Midbrain: Neurons) was 0, the “# Pos/Exam” value (Colon: Mucosal Epithelium) was 3/3 and the “Summary Reactivity” value (Colon: Mucosal Epithelium) was 500. For the same molecule, the “# Pos/Exam” value (Colon: Muscularis Externa) was 0/3, the “Summary Reactivity” value (Colon: Muscularis Externa) was 0 and the “# Pos/Exam” value (Colon: Muscularis Mucosa) was 0/3. The “Summary Reactivity” value (Colon: Muscularis Mucosa) was 0, the “# Pos/Exam” value (Colon: Nerve Ganglia) was 0/3 and the “Summary Reactivity” value (Colon: Nerve Ganglia) was 0. For the same molecule, the “# Pos/Exam” value (Colon: Serosa) was 0/1, the “Summary Reactivity” value (Colon: Serosa) was 0 and the “# Pos/Exam” value (Duodenum: Mucosal Epithelium) was 3/3. The “Summary Reactivity” value (Duodenum: Mucosal Epithelium) was 500, the “# Pos/Exam” value (Duodenum: Muscularis Mucosa) was 0/3 and the “Summary Reactivity” value (Duodenum: Muscularis Mucosa) was 0. For the same molecule, the “# Pos/Exam” value (Epididymis: Epithelium) was 3/3, the “Summary Reactivity” value (Epididymis: Epithelium) was 419 and the “# Pos/Exam” value (Epididymis: Smooth Muscle) was 0/3. For the same molecule, the “Summary Reactivity” value (Epididymis: Smooth Muscle) was 0, the “# Pos/Exam” value (Epididymis: Spermatozoa) was 0/1 and the “Summary Reactivity” value (Epididymis: Spermatozoa) was 0. The “# Pos/Exam” value (Esophagus: Epithelium) was 3/3, the “Summary Reactivity” value (Esophagus: Epithelium) was 86 and the “# Pos/Exam” value (Esophagus: Mucosal Gland) was 2/2. The “Summary Reactivity” value (Esophagus: Mucosal Gland) was 450, the “# Pos/Exam” value (Esophagus: Smooth Muscle) was 0/3 and the “Summary Reactivity” value (Esophagus: Smooth Muscle) was 0. The “# Pos/Exam” value [10] was 0/3, the “Summary Reactivity” value [10] was 467 and the “# Pos/Exam” value (Gall Bladder: Smooth Muscle) was 0/3. The “Summary Reactivity” value (Gall Bladder: Smooth Muscle) was 0, the “# Pos/Exam” value (Heart: Myocardium) was 0/3 and the “Summary Reactivity” value (Heart: Myocardium) was 0. The “# Pos/Exam” value (Heart: Serosa) was 0/1, the “Summary Reactivity” value (Heart: Serosa) was 0 and the “# Pos/Exam” value (Ileum: Lymph Node) was 0/2. The “Summary Reactivity” value (Ileum: Lymph Node) was 0, the “# Pos/Exam” value (Ileum: Mucosal Epithelium) was 0/2 and the “Summary Reactivity” value (Ileum: Mucosal Epithelium) was 0. For the same molecule, the “# Pos/Exam” value (Ileum: Muscularis Externa) was 0/1, the “Summary Reactivity” value (Ileum: Muscularis Externa) was 0 and the “# Pos/Exam” value (Ileum: Muscularis Mucosa) was 0/2. The “Summary Reactivity” value (Ileum: Muscularis Mucosa) was 0, the “# Pos/Exam” value (Ileum: Nerve Ganglia) was 0/1 and the “Summary Reactivity” value (Ileum: Nerve Ganglia) was 0. For the same molecule, the “# Pos/Exam” value (Ileum: Serosa) was 0/1, the “Summary Reactivity” value (Ileum: Serosa) was 0 and the “# Pos/Exam” value (Jejunum: Lymph Node) was 0/1. For the same molecule, the “Summary Reactivity” value (Jejunum: Lymph Node) was 0, the “# Pos/Exam” value (Jejunum: Mucosal Epithelium) was 2/2 and the “Summary Reactivity” value (Jejunum: Mucosal Epithelium) was 400. The “# Pos/Exam” value (Jejunum: Muscularis Externa) was 0/2, the “Summary Reactivity” value (Jejunum: Muscularis Externa) was 0 and the “# Pos/Exam” value (Jejunum: Muscularis Mucosa) was 0/2. The “Summary Reactivity” value (Jejunum: Muscularis Mucosa) was 0, the “# Pos/Exam” value (Jejunum: Nerve Ganglia) was 0/2 and the “Summary Reactivity” value (Jejunum: Nerve Ganglia) was 0. The “# Pos/Exam” value (Jejunum: Serosa) was 0/1, the “Summary Reactivity” value (Jejunum: Serosa) was 0 and the “# Pos/Exam” value (Kidney: Collecting Tubules) was 2/3. The “Summary Reactivity” value (Kidney: Collecting Tubules) was 160, the “# Pos/Exam” value [11] was 3/3 and the “Summary Reactivity” value [11] was 500. For the same molecule, the “# Pos/Exam” value (Kidney: Glomerular Eipithelium) was 0/3, the “Summary Reactivity” value (Kidney: Glomerular Eipithelium) was 0 and the “# Pos/Exam” value (Kidney: Mesangial) was 0/3. For the same molecule, the “Summary Reactivity” value (Kidney: Mesangial) was 0, the “# Pos/Exam” value [12] was 3/3 and the “Summary Reactivity” value [12] was 500. The “# Pos/Exam” value (Liver: Bile Duct) was 3/3, the “Summary Reactivity” value (Liver: Bile Duct) was 500 and the “# Pos/Exam” value [13] was 1/3. For the same molecule, the “Summary Reactivity” value [13] was 4, the “# Pos/Exam” value (Liver: Kupffer Cells) was 0/3 and the “Summary Reactivity” value (Liver: Kupffer Cells) was 0. The “# Pos/Exam” value (Liver: Periportal Hepatocyte) was 1/3, the “Summary Reactivity” value (Liver: Periportal Hepatocyte) was 40 and the “# Pos/Exam” value (Lung: Alveolar Macrophage) was 0/3. For the same molecule, the “Summary Reactivity” value (Lung: Alveolar Macrophage) was 0, the “# Pos/Exam” value (Lung: Bronchial Epithelium) was 0/2 and the “Summary Reactivity” value (Lung: Bronchial Epithelium) was 0. For the same molecule, the “# Pos/Exam” value (Lung: Bronchial Smooth Muscle) was 0/2, the “Summary Reactivity” value (Lung: Bronchial Smooth Muscle) was 0 and the “# Pos/Exam” value (Lung: Pneumocyte Type I) was 3/3. The “Summary Reactivity” value (Lung: Pneumocyte Type I) was 354, the “# Pos/Exam” value (Lung: Pneumocyte Type II) was 3/3 and the “Summary Reactivity” value (Lung: Pneumocyte Type II) was 387. For the same molecule, the “# Pos/Exam” value [14] was 0/3, the “Summary Reactivity” value [14] was 0 and the “# Pos/Exam” value [15] was 0/3. For the same molecule, the “Summary Reactivity” value [15] was 0, the “# Pos/Exam” value [16] was 3/3 and the “Summary Reactivity” value [16] was 500. For the same molecule, the “# Pos/Exam” value (Mammary Gland: Duct Epithelium) was 3/3, the “Summary Reactivity” value (Mammary Gland: Duct Epithelium) was 500 and the “# Pos/Exam” value (Mammary Gland: Myoepithelium) was 0/3. The “Summary Reactivity” value (Mammary Gland: Myoepithelium) was 0, the “# Pos/Exam” value (Muscle Skeletal: Muscle Fiber) was 0/3 and the “Summary Reactivity” value (Muscle Skeletal: Muscle Fiber) was 0. For the same molecule, the “# Pos/Exam” value (Nerve: Axon, Myelinated) was 0/2, the “Summary Reactivity” value (Nerve: Axon, Myelinated) was 0 and the “# Pos/Exam” value (Nerve: Endoneurium) was 0/2.
